Measurements: PMC4072508, “Genome-Wide Prediction and Validation of Peptides That Bind Human Prosurvival Bcl-2 Proteins” (PLoS Computational Biology, 2014)

T1: Bfl-1, Q16548
T1 chain: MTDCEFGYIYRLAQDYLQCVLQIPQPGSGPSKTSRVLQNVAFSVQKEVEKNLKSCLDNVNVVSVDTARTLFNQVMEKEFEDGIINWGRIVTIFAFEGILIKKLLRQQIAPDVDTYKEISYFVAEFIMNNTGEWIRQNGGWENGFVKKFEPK

T2: Mcl-1, Q07820
T2 chain: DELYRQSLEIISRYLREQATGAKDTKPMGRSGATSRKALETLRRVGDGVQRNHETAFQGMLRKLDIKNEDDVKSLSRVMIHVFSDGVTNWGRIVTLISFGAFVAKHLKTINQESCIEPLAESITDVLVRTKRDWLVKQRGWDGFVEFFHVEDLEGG


Tests used:
Assay in all cases: peptide SPOT array, c-Myc-tagged receptor at 1 uM or 100 nM, anti-c-Myc-Cy3
[1] = biological target: Bcl-xL, Q07817
Bcl-xL, Q07817, sequence (Q07817 1-209): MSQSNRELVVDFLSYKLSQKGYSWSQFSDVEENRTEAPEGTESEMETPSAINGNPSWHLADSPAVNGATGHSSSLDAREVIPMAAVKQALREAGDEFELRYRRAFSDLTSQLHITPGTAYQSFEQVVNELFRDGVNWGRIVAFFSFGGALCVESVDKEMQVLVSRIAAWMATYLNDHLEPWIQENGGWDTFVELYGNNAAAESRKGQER

[2] = biological target: T1, Bfl-1, Q16548
[3] = biological target: T2, Mcl-1, Q07820

Row | Binder | SPOT signal as a fraction of Bim BH3's signal on the same receptor and array [1] | SPOT signal as a fraction of Bim BH3's signal on the same receptor and array [2] | SPOT signal as a fraction of Bim BH3's signal on the same receptor and array [3]
1 | VLAPVQLGKWDVLFCDEINLPDMDKY [DYNC1H1] | 0.07 | 0.07 | 0.05
2 | NDDTPWIARTDDNLADELTAILSAPA [GBP6] | 0.04 | 0.03 | 0.04
3 | PDKRLTLSQIYQYVADNFPFYNKSKA | 1.74 | 0.56 | 0.56
4 | PVESSWIAPELRLQSDDILPLGKDSG [DHX30] | 0.05 | 0.04 | 0.04
5 | TGSLCEIATTLSFEGDGFLWVKSGSV [CRB1] | 0.06 | 0.03 | 0.04
6 | PDKRLTLSQIDQYVADNFPFYNKSKA | 0.84 | 0.42 | 0.39
7 | AELRLFLAQRDRWLCDSCPASRATCV [NBEAL2] | 0.34 | 0.33 | 0.5
8 | GSPDSMFGISLAVLLDLNQDGFPDIA [ITGA7] | 0.07 | 0.07 | 0.04
9 | ADAIRPRCVEDRHLCDDFINGNKKKW | 0.15 | 0.07 | 0.06
10 | VHKHSRLAEVLQLGLDILPQYKQEAP [KCNH1] | 0.12 | 0.07 | 0.14
11 | MQTLSELAKSDQDMADRCLLVLHLEV [EXOC4] | 0.05 | 0.04 | 0.04
12 | KGTAVAICRRLGIFLDTEDVAGKAYT [ATP2A3] | 0.16 | 0.09 | 0.16
13 | APEEDFFSIHIRIVGDWTEGLFNACG [CYBB] | 0.06 | 0.04 | 0.09
14 | LTETSLISGNDHRIGDITSCSVLWLN | 0.06 | 0.04 | 0.03
15 | TETKATFGVHDKIVGDWTERFRDLLL [NOX4] | 0.05 | 0.07 | 0.05
16 | LTETSLISGNLHRIGDITSCSVLWLN | 0.06 | 0.04 | 0.04
17 | ADAIRPRCVELRHLLDDFINGNKKKW | 0.56 | 0.31 | 0.26

Results, then the binder that gave them:

Row | SPOT signal as a fraction of Bim BH3's signal on the same receptor and array [1] | SPOT signal as a fraction of Bim BH3's signal on the same receptor and array [2] | SPOT signal as a fraction of Bim BH3's signal on the same receptor and array [3] | Binder
18 | 0.13 | 0.12 | 0.15 | WTLFVYTKGNFRMIGDDLVNSYHLLL [RBL1]
19 | 1.27 | 0.69 | 0.93 | RLRQLGVAKKFGVLLDNFKGKRIVLV [PPAT]
20 | 0.06 | 0.03 | 0.04 | LDFTFVCPTEDIAFGDRLEEFRSINT
21 | 0.05 | 0.04 | 0.04 | LNLLMISVAFDRVIGDQLEKLCDSLL [SLC38A8]
22 | 0.11 | 0.06 | 0.08 | VTLLSEVEKMLSNFGDCVQYKEIVKN [SYNE1]
23 | 0.15 | 0.06 | 0.1 | EAVTDGLKRALRSFGNALGNCILDKD [RAD52]
24 | 0.06 | 0.03 | 0.04 | LDFTFVCPTEIIAFGDRLEEFRSINT
25 | 0.66 | 0.76 | 0.83 | FKAWGKFGGADCRYADEMKEIQERQR [PURB]
26 | 0.06 | 0.04 | 0.04 | RKDAELLCWDDRQSGYPLWSLGREVT [WRAP53]
27 | 0.92 | 0.29 | 0.32 | SDIRDDISEQVRHVGRTVRGHPRKKL [TMEM184C]
28 | 0.07 | 0.05 | 0.06 | WLKGDILGEKLVNLLDCLCNEDLESR [RNF160]
29 | 0.06 | 0.04 | 0.04 | MSILTIASAVLEFVLDGIYNNTMGHV [TAP1]
30 | 0.06 | 0.03 | 0.07 | LSIIYTLVEIFQNIGDTNLADFTAGL [SLC26A4]
31 | 0.08 | 0.08 | 0.07 | SFLSAHCASHLAWFLDSLTSLSQRLQ [TMEM214]
32 | 0.2 | 0.17 | 0.1 | AELEVECATQLRRFLDKLNFRQKLLN [PMAIP1]
